Results: patent US10011641B2
Non-standard residues stand in square brackets, D forms with d. No end group written: not given here. Z06677 = not defined here

What was measured:
[1] = target: PEP17081 (Artificial sequence); experiment: affinity purification on anti-ABD agarose, spectrophotometric analysis of the eluted pool
[2] = target: PEP06548 (Artificial sequence); experiment: affinity purification on anti-ABD agarose with about 2.3 mg ligand per ml resin, absorbance measurement

binding capacity (mg PEP17081 per ml resin) [1]: 13 | purified protein obtained per ml of resin (mg per ml of resin) [2]: 3.7 | sample molecules per ligand ([2]; scale: PEP06548 molecule per): 1
Binder: GSSLQ[Z06677][Z06677]VDC (designed binder, reading uncertain; also: printed as GSSLQ-[Z06677][Z06677]-VDC) [(Z06677)2-Cys]
